The record followed here is patent US20130195871A1 (AbbVie / Abbott, published 2013).

Assay [1] deals with T1, Recombinant Human ErbB3/FC Chimera-His tag (human, UniProt P21860 20-643).
T1 construct: bought reagent
Put plainly: SPR (Biacore). (In general: In SPR one partner is held on a chip, and binding of the other changes the refractive index at the surface.)
Method: (§1) The BIACORE assay (Biacore, Inc, Piscataway, N.J.) determined the affinity of antibodies or DVD-Ig proteins with kinetic measurements of on-rate and off-rate constants. Binding of antibodies or DVD-Ig proteins to a target antigen (for example, a purified recombinant target antigen) was determined by surface plasmon resonance-based measurements with a Biacore® 1000 or 3000 instrument (Biacore AB, Uppsala. Sweden) using running HBS-EP (10 mM HEPES [pH 7.4], 150 mM NaCl, 3 mM EDTA, and 0.005% surfactant P20) at 25° C. […] For example, approximately 5000 RU of goat anti-mouse IgG, (Fcγ), fragment specific polyclonal antibody (Pierce Biotechnology Inc, Rockford, Ill.) diluted in 10 mM sodium acetate (pH 4.5) was directly immobilized across a CM5 research grade biosensor chip using a standard amine coupling kit according to manufacturer's instructions and procedures at 25 μg/ml. Unreacted moieties on the biosensor surface were blocked with ethanolamine. Modified carboxymethyl dextran surface in flowcell 2 and 4 was used as a reaction surface. Unmodified carboxymethyl dextran without goat anti-mouse IgG in flow cell 1 and 3 was used as the reference surface. For kinetic analysis, rate equations derived from the 1:1 Langmuir binding model were fitted simultaneously to association and dissociation phases of all eight injections (using global fit analysis) with the use of Biaevaluation 4.0.1 software. Purified antibodies or DVD-Ig proteins were diluted in HEPES-buffered saline for capture across goat anti-mouse IgG specific reaction surfaces. Antibodies or DVD-Ig proteins to be captured as a ligand (25 μg/ml) were injected over reaction matrices at a flow rate of 5 μl/minute. The association and dissociation rate constants, kₒₙ (M⁻¹s⁻¹) and koff (s⁻¹) were determined under a continuous flow rate of 25 μl/minute. Rate constants were derived by making kinetic binding measurements at different antigen concentrations ranging from 10-200 nM. The equilibrium dissociation constant (M) of the reaction between antibodies or DVD-Ig proteins and the target antigen was then calculated from the kinetic rate constants by the following formula: KD=koff/kₒₙ. Binding was recorded as a function of time and kinetic rate constants were calculated.

Assay [2] has as its target T2, Recombinant Human EGFR ECD (human, UniProt P00533 25-645).
T2 construct: extracellular domain; bought reagent
Put plainly: SPR (Biacore), C-terminal VD.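 Also: surface plasmon resonance with DVD-Ig proteins captured on an anti-IgG chip and recombinant antigen flowed over in HBS-EP buffer, Langmuir global fit, KD taken as koff/kon.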
Method: as §1

Assay [3] deals with T1, Recombinant Human ErbB3/FC Chimera-His …. Put plainly: SPR (Biacore), C-terminal VD.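 Also: surface plasmon resonance with DVD-Ig proteins captured on an anti-IgG chip and recombinant antigen flowed over in HBS-EP buffer, Langmuir global fit, KD taken as koff/kon.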
Method: as §1
In assay [4] the target is T2, Recombinant Human EGFR ECD. Put plainly: SPR (Biacore), N-terminal VD.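 Also: capture of antibodies or DVD-Ig proteins on an anti-mouse IgG chip surface, recombinant antigen injected at 10–200 nM in HBS-EP running buffer at 25 °C.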
Assay [5] has as its target T3, Recombinant Human IGF1R (human, UniProt P08069 31-932).
T3 construct: bought reagent
Briefly: SPR (Biacore), N-terminal VD.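 Also: capture of antibodies or DVD-Ig proteins on an anti-mouse IgG chip surface, recombinant antigen injected at 10–200 nM in HBS-EP running buffer at 25 °C.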

For assay [6], the target named is T3, Recombinant Human IGF1R. Put plainly: SPR (Biacore).
Method: as §1

B1: DVD2249 (bispecific antibody)
VH: EVQLLESGGGLVQPGGSLRLSCAASGFTFSHYVMAWVRQAPGKGLEWVSSISSSGGWTLYADSVKGRFTISRDNSKNTLYLQMNSLRAEDTAVYYCTRGLKMATIFDYWGQGTLVTVSSASTKGPSVFPLAPQVQLQQWGAGLLKPSETLSLTCAVYGGSFSGYYWSWIRQPPGKGLEWIGEINHSGSTNYNPSLKSRVTISVETSKNQFSLKLSSVTAADTAVYYCARDKWTWYFDLWGRGTLVTVSS
VL: QSALTQPASVSGSPGQSITISCTGTSSDVGSYNVVSWYQQHPGKAPKLIIYEVSQRPSGVSNRFSGSKSGNTASLTISGLQTEDEADYYCCSYAGSSIFVIFGGGTKVTVLGTVAAPDIEMTQSPDSLAVSLGERATINCRSSQSVLYSSSNRNYLAWYQQNPGQPPKLLIYWASTRESGVPDRFSGSGSGTDFTLTISSLQAEDVAVYYCQQYYSTPRTFGQGTKVEIK
notes: DVD-Ig, outer AB116 / inner AB062
Take B1: in assay [1], the Kd (usually the concentration at which binding is half-saturated) came out at 5.6 nM; the koff (as a rule, the first-order rate constant of dissociation) turned out to be 0.00022 s⁻¹; the kon (in general, a measure of how fast the partners come together) was determined as 39000 M⁻¹ s⁻¹.

B2: DVD2268 (bispecific antibody)
VH: EVQLVESGGGLVQPGGSLRLSCAASGFTFTDYTMDWVRQAPGKGLEWVADVNPNSGGSIYNQRFKGRFTLSVDRSKNTLYLQMNSLRAEDTAVYYCARNLGPSFYFDYWGQGTLVTVSSASTKGPQVQLQESGPGLVKPSETLSLTCTVSGGSVSSGDYYWTWIRQSPGKGLEWIGHIYYSGNTNYNPSLKSRLTISIDTSKTQFSLKLSSVTAADTAIYYCVRDRVTGAFDIWGQGTMVTVSS
VL: DIQMTQSPSSLSASVGDRVTITCKASQDVSIGVAWYQQKPGKAPKLLIYSASYRYTGVPSRFSGSGSGTDFTLTISSLQPEDFATYYCQQYYIYPYTFGQGTKVEIKRTVAAPDIQMTQSPSSLSASVGDRVTITCQASQDISNYLNWYQQKPGKAPKLLIYDASNLETGVPSRFSGSGSGTDFTFTISSLQPEDIATYFCQHFDHLPLAFGGGTKVEIK
Turning to B2, in assay [2], the Kd came to 18 nM, the dissociation rate constant (koff) was 0.00035 s⁻¹ and the kon amounted to 19000 M⁻¹ s⁻¹.

B3: DVD2238 (bispecific antibody)
VH: QVQLQQWGAGLLKPSETLSLTCAVYGGSFSGYYWSWIRQPPGKGLEWIGEINHSGSTNYNPSLKSRVTISVETSKNQFSLKLSSVTAADTAVYYCARDKWTWYFDLWGRGTLVTVSSASTKGPEVQLVESGGGLVQPGGSLRLSCAASGFTFSIYSMNWVRQAPGKGLEWVSYISSSSSTIYYADSVKGRFTISRDNAKNSLYLQMNSLRDEDTAVYYCARDRGDFDAFDIWGQGTMVTVSS
VL: DIEMTQSPDSLAVSLGERATINCRSSQSVLYSSSNRNYLAWYQQNPGQPPKLLIYWASTRESGVPDRFSGSGSGTDFTLTISSLQAEDVAVYYCQQYYSTPRTFGQGTKVEIKRTVAAPDIQMTQSPSSLSASVGDRVTITCQASQDITNYLNWYQQKPGKAPKLLIYDASNLETGVPSRFSGSGSGTDFTFTISSLQPEDIATYNCQQCENFPITFGQGTRLEIK
notes: DVD-Ig, outer AB062 / inner AB063
For the molecule B3, in assay [1], the Kd stood at 5.9 nM, the koff came to 0.0003 s⁻¹ and the kon was 51000 M⁻¹ s⁻¹.

B4: DVD2242 (bispecific antibody)
VH: QVQLQQWGAGLLKPSETLSLTCAVYGGSFSGYYWSWIRQPPGKGLEWIGEINHSGSTNYNPSLKSRVTISVETSKNQFSLKLSSVTAADTAVYYCARDKWTWYFDLWGRGTLVTVSSASTKGPSVFPLAPEVQLVESGGGLVQPGGSLRLSCAASGFTFSIYSMNWVRQAPGKGLEWVSYISSSSSTIYYADSVKGRFTISRDNAKNSLYLQMNSLRDEDTAVYYCARDRGDFDAFDIWGQGTMVTVSS
VL: B3 VL
notes: as for B3
With B4, in assay [1], the Kd was found to be 7.6 nM, the koff was determined as 0.00051 s⁻¹ and the kon turned out to be 67000 M⁻¹ s⁻¹.

B5: DVD2274 (bispecific antibody)
VH: EVQLVESGGGLVQPGGSLRLSCAASGFTFTDYTMDWVRQAPGKGLEWVADVNPNSGGSIYNQRFKGRFTLSVDRSKNTLYLQMNSLRAEDTAVYYCARNLGPSFYFDYWGQGTLVTVSSASTKGPQVQLQQWGAGLLKPSETLSLTCAVYGGSFSGYYWSWIRQPPGKGLEWIGEINHSGSTNYNPSLKSRVTISVETSKNQFSLKLSSVTAADTAVYYCARDKWTWYFDLWGRGTLVTVSS
VL: DIQMTQSPSSLSASVGDRVTITCKASQDVSIGVAWYQQKPGKAPKLLIYSASYRYTGVPSRFSGSGSGTDFTLTISSLQPEDFATYYCQQYYIYPYTFGQGTKVEIKRTVAAPDIEMTQSPDSLAVSLGERATINCRSSQSVLYSSSNRNYLAWYQQNPGQPPKLLIYWASTRESGVPDRFSGSGSGTDFTLTISSLQAEDVAVYYCQQYYSTPRTFGQGTKVEIK
notes: DVD-Ig, outer AB080 / inner AB062
With B5, in assay [3], the binding result is listed as “no binding (tested: 10-200 nM)”.

B6: DVD2349 (bispecific antibody)
VH: EVQLVESGGGLVQPGGSLRLSCAASGFSLTNYGVHWVRQAPGKGLEWLGVGWSGGNTDYNTPFTSRLTINKDNSKNTVYLQMNSLRAEDTAVYYCARALTWYDYEFAYWGQGTLVTVSSASTKGPQVQLQESGPGLVKPSQTLSLTCTVSGYSISSDFAWNWIRQPPGKGLEWMGYISYSGNTRYQPSLKSRITISRDTSKNQFFLKLNSVTAADTATYYCVTAGRGFPYWGQGTLVTVSS
VL: DILLTQSPGTLSLSPGERATLSCRASQSIYTNIHWYQQKPGQAPRLLIKYASESISGIPDRFSGSGSGTDFTLTISRLEPEDFAVYYCQQNLNWPTTFGQGTKLEIKRTVAAPDIQMTQSPSSMSVSVGDRVTITCHSSQDINSNIGWLQQKPGKSFKGLIYHGTNLDDGVPSRFSGSGSGTDYTLTISSLQPEDFATYYCVQYAQFPWTFGGGTKLEIK
For B6, in assay [4], the Kd worked out at 0.76 nM, the koff turned out to be 0.00045 s⁻¹ and the kon worked out at 580000 M⁻¹ s⁻¹.

B7: DVD2284 (bispecific antibody)
VH: EVQLVQSGAEVKKPGSSVKVSCKASGGTFSSYAISWVRQAPGQGLEWMGGIIPIFGTANYAQKFQGRVTITADKSTSTAYMELSSLRSEDTAVYYCARAPLRFLEWSTQDHYYYYYMDVWGKGTTVTVSSASTKGPQVQLQESGPGLVKPSQTLSLTCTVSGYSISSDFAWNWIRQPPGKGLEWMGYISYSGNTRYQPSLKSRITISRDTSKNQFFLKLNSVTAADTATYYCVTAGRGFPYWGQGTLVTVSS
VL: SSELTQDPAVSVALGQTVRITCQGDSLRSYYATWYQQKPGQAPILVIYGENKRPSGIPDRFSGSSSGNTASLTITGAQAEDEADYYCKSRDGSGQHLVFGGGTKLTVLGQPKAAPDIQMTQSPSSMSVSVGDRVTITCHSSQDINSNIGWLQQKPGKSFKGLIYHGTNLDDGVPSRFSGSGSGTDYTLTISSLQPEDFATYYCVQYAQFPWTFGGGTKLEIK
With B7, in the assay with Recombinant Human IGF1R [5], the Kd was 7.4 nM, the koff was determined as 0.00019 s⁻¹ and the kon was found to be 26000 M⁻¹ s⁻¹. Further, in assay [2], the Kd was found to be 6.1 nM, the koff was 0.00016 s⁻¹ and the kon was 26000 M⁻¹ s⁻¹.

B8: DVD2348 (bispecific antibody)
VH: QVQLQESGPGLVKPSQTLSLTCTVSGYSISSDFAWNWIRQPPGKGLEWMGYISYSGNTRYQPSLKSRITISRDTSKNQFFLKLNSVTAADTATYYCVTAGRGFPYWGQGTLVTVSSASTKGPEVQLVESGGGLVQPGGSLRLSCAASGFSLTNYGVHWVRQAPGKGLEWLGVGWSGGNTDYNTPFTSRLTINKDNSKNTVYLQMNSLRAEDTAVYYCARALTWYDYEFAYWGQGTLVTVSS
VL: DIQMTQSPSSMSVSVGDRVTITCHSSQDINSNIGWLQQKPGKSFKGLIYHGTNLDDGVPSRFSGSGSGTDYTLTISSLQPEDFATYYCVQYAQFPWTFGGGTKLEIKRTVAAPDILLTQSPGTLSLSPGERATLSCRASQSIYTNIHWYQQKPGQAPRLLIKYASESISGIPDRFSGSGSGTDFTLTISRLEPEDFAVYYCQQNLNWPTTFGQGTKLEIK
Turning to B8, in assay [4], the Kd amounted to 8.5 nM, the koff is 0.00024 s⁻¹ and the kon was 28000 M⁻¹ s⁻¹.

B9: DVD2214 (bispecific antibody)
VH: EVQLVQSGAEVKKPGSSVKVSCKASGGTFSSYAISWVRQAPGQGLEWMGGIIPIFGTANYAQKFQGRVTITADKSTSTAYMELSSLRSEDTAVYYCARAPLRFLEWSTQDHYYYYYMDVWGKGTTVTVSSASTKGPEVQLLESGGGLVQPGGSLRLSCTASGFTFSSYAMNWVRQAPGKGLEWVSAISGSGGTTFYADSVKGRFTISRDNSRTTLYLQMNSLRAEDTAVYYCAKDLGWSDSYYYYYGMDVWGQGTTVTVSS
VL: SSELTQDPAVSVALGQTVRITCQGDSLRSYYATWYQQKPGQAPILVIYGENKRPSGIPDRFSGSSSGNTASLTITGAQAEDEADYYCKSRDGSGQHLVFGGGTKLTVLGQPKAAPDIQMTQFPSSLSASVGDRVTITCRASQGIRNDLGWYQQKPGKAPKRLIYAASRLHRGVPSRFSGSGSGTEFTLTISSLQPEDFATYYCLQHNSYPCSFGQGTKLEIK
notes: DVD-Ig, outer AB075 / inner AB011
In the case of B9, in the assay with Recombinant Human IGF1R [6], the Kd stood at 5.5 nM, the koff is 0.00014 s⁻¹ and the kon stood at 26000 M⁻¹ s⁻¹.

B10: DVD2216 (bispecific antibody)
VH: B9 VH
VL: SSELTQDPAVSVALGQTVRITCQGDSLRSYYATWYQQKPGQAPILVIYGENKRPSGIPDRFSGSSSGNTASLTITGAQAEDEADYYCKSRDGSGQHLVFGGGTKLTVLGQPKAAPSVTLFPPDIQMTQFPSSLSASVGDRVTITCRASQGIRNDLGWYQQKPGKAPKRLIYAASRLHRGVPSRFSGSGSGTEFTLTISSLQPEDFATYYCLQHNSYPCSFGQGTKLEIK
notes: as for B9
Turning to B10, in the assay with Recombinant Human IGF1R [6], the Kd came out at 6.6 nM, the koff turned out to be 0.00012 s⁻¹ and the kon turned out to be 19000 M⁻¹ s⁻¹.

B11: DVD2218 (bispecific antibody)
VH: EVQLVQSGAEVKKPGSSVKVSCKASGGTFSSYAISWVRQAPGQGLEWMGGIIPIFGTANYAQKFQGRVTITADKSTSTAYMELSSLRSEDTAVYYCARAPLRFLEWSTQDHYYYYYMDVWGKGTTVTVSSASTKGPSVFPLAPEVQLLESGGGLVQPGGSLRLSCTASGFTFSSYAMNWVRQAPGKGLEWVSAISGSGGTTFYADSVKGRFTISRDNSRTTLYLQMNSLRAEDTAVYYCAKDLGWSDSYYYYYGMDVWGQGTTVTVSS
VL: B9 VL
notes: as for B9
For B11, in the assay with Recombinant Human IGF1R [6], the Kd came to 5.3 nM, the koff was 0.00013 s⁻¹ and the kon was determined as 25000 M⁻¹ s⁻¹.
